From patent US20200062804A1 (ADRX, published 2020)
Non-standard residues stand in square brackets, D forms with d. No end group written: not given here. hArg = N=C(N)NCCCC[C@H](N)C(=O)O

T1: Nat1 (LTIITLE) (also: TFA salt)
T1 peptide: LTIITLE


Biological target: T1, Nat1 (LTIITLE)
Experiment: cell-based or functional assay

IC50, Thiofiavin T aggregation assay [nM]	Molecule
175	YRLRYVR
203	WTIRYYK
222	WTRITLK
220	LAIKYHR
181	[dQ][dF][dR][dM][dH][dH][dR] [qfrmhhr]
167	[dQ][dI][dR][dY][dF][dR][dR] [qiryfrr]
198	LTIRLWH
182	LRIRHYT
215	[dR][dL][dH][dW][dK][dH][dH] [rlhwkhh]
95	[dQ][dQ][dR][dY][dY][dW][dR] [qqryywr]
43	[dR][dI][dH][dY][dF][dR][dR] [rihyfrr]
181	[dY][dQ][dY][dY][dF][dW][dR] [yqyyfwr]
191	[dY][dQ][dW][dR][dY][dR][dR] [yqwryrr]
194	[dY][dQ][dW][dY][dR][dW][dQ] [yqwyrwq]
210	LFIKYHR
228	[dF][dW][dR][dW][dH][dR][dA] [fwrwhra]
199	[dR][dW][dR][dI][dL][dQ][dK] [rwrilqk]

IC50, Thiofiavin T aggregation assay [nM]	Molecule
32	[dK][dF][dR][dF][dY][dH][dR] [kfrfyhr]
40	IRI[hArg]RYR [Ile-Arg-Ile-homoArg-Arg-Tyr-Arg]
192	[dH][dL][dR][dY][dH][dR][dK] [hlryhrk]
210	[dR][dQ][dH][dY][dR][dW][dR] [rqhyrwr]
76	[dR][dF][dY][dY][dH][dR][dR] [rfyyhrr]
203	LYIRTLH
180	LYIRYTH
176	[dF][dW][dR][dW][dA][dR][dR] [fwrwarr]
192	LYIRLTH
213	TRIYRYK
205	IRIRRY
187	[dS][dW][dW][dF][dR][dH][dR] [swwfrhr]
37	IRIRRAR
185	FRIRRYR
216	[dR][dW][dM][dY][dW][dQ][dR] [rwmywqr]
194	[dL][dW][dR][dW][dY][dR][dR] [lwrwyrr]

biological target: Protein in Human Serum; experiment: protein binding in human serum; method not described

% Protein Binding in Human Serum [%]	Molecule
12	rrrrrrrrrrpihqrqyqr (peptide)
95	rrrrrrrrrrpihlriwrn (peptide)
86	rrrrrrrrrrpikfrfyhr (peptide)
94	rrrrrrrrrrpikwrwyrr (peptide)
89	rrrrrrrrrgggyqwyrwq (peptide)
99	rrrrrrrrrrpiyqwyrwq (peptide)
93	rrrrrrrrrrpirihyfrr (peptide)
84	RRRRRRRRRRPIIRIRHYR
100	PRRRRRRRRRRPIWTIKLWHP
83	RRRRRRRRRRPIIRIRHYP
82	[dQ][dQ][dR][dY][dY][dW][dR] [qqryywr]
98	[dY][dQ][dW][dY][dR][dW][dQ] [yqwyrwq]
81	[dK][dF][dR][dF][dY][dH][dR] [kfrfyhr]
91	[dR][dF][dY][dY][dH][dR][dR] [rfyyhrr]
66	RRRRRRRRRRPILTRITLE
89	PRRRRRRRRRRPITRIRFYRP
89	PRRRRRRRRRRPIIRIRHYRP
98	PRRRRRRRRRRPILRIRYWKP
81	RRRRRRRRRRPIIRIRHYRP
